The target in series [1] is T1, HvUGT14077 (Hordeum vulgare, UniProt D3WYW3).
T1 sequence (D3WYW3 1-490): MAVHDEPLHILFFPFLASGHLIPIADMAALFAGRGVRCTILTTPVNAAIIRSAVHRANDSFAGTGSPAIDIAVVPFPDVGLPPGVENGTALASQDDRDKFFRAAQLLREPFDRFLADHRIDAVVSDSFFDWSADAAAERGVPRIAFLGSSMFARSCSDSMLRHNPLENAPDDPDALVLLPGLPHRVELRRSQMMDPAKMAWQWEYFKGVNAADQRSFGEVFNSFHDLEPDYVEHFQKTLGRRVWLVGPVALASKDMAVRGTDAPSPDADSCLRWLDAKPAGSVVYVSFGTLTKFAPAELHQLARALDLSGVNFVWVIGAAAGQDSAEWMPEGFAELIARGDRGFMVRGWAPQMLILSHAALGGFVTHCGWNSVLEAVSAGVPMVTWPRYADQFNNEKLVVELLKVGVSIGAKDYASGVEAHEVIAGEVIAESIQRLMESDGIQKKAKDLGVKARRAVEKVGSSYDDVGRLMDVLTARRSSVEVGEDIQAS
The experiment in a line: LC-MS/MS of glucoside formation. It is filed as biochemical. The arrangement: gene UGT; nHis6-MalE-TEV-HvUGT14077 fusion (tags kept), E. coli BL21 (DE3), IMAC, predicted 97 kDa incl. tags.

For series [2], the target named is T1, HvUGT14077. The experiment in a line: LC-MS/MS, steady state, sum of […]- and 16-glucosides, Haldane fit. The arrangement: gene UGT. Conditions: read-out: Kinetic Constant / Km; 10 mM UDP-glucose; 100 mM Tris/Cl pH 7.5, 37 °C; apparent Km, substrate inhibition model.
Substrate in series [3]: C[C@H]1CCC[C@@H](O)CCC/C=C/c2cc(O)cc(O)c2C(=O)O1
The experiment in a line: purified protein. Conditions: 10 mM UDP-glucose, 100 mM Tris/Cl pH 7.5, 37 °C, apparent Km, substrate inhibition model.

Substrate in series [4]: C[C@H]1CCC[C@H](O)CCC/C=C/c2cc(O)cc(O)c2C(=O)O1
The experiment in a line: purified protein. Conditions: 10 mM UDP-glucose, 100 mM Tris/Cl pH 7.5, 37 °C, apparent Km, substrate inhibition model.

Substrate in series [5]: O=c1ccn([C@@H]2O[C@H](CO[P@@](=O)(O)O[P@@](=O)(O)O[C@H]3O[C@H](CO)[C@@H](O)[C@H](O)[C@H]3O)[C@@H](O)[C@H]2O)c(=O)[nH]1
The experiment in a line: purified protein. To be noted: 25 µM zearalenone, 100 mM Tris/Cl pH 7.5, 37 °C.

`O=c1ccn([C@@H]2O[C@H](COP(=O)(O)OP(=O)(O)O)[C@@H](O)[C@H]2O)c(=O)[nH]1` [UDP]: the IC50 (as a rule, the concentration that inhibits the measured activity by half) at HvUGT14077 [1] is 340 µM.
Consider `C[C@H]1CCCC(=O)CCC/C=C/c2cc(O)cc(O)c2C(=O)O1` [ZEN, Zearalenone], for which the Km on HvUGT14077 [2] was found to be 3 ± 1 µM.

B1: HvUGT14077 (Hordeum vulgare subsp. vulgare) (protein)
chain: T1 sequence (D3WYW3 1-490)
As to B1, in the series “purified protein [3]”, the Km turned out to be 27 ± 3 µM; the Vmax (commonly the rate approached at saturating substrate) was found to be 1.2 µmol/min/mg; the kcat (usually the maximal rate divided by the concentration of active sites) came to 2 ± 0.1 s⁻¹; the kcat/Km (as a rule, the second-order rate constant that governs catalysis at low substrate concentration) stood at 74000 M⁻¹ s⁻¹. Further, in the series “purified protein [4]”, the Km came to 13 ± 2 µM, the maximal velocity (Vmax) came to 0.32 µmol/min/mg, the kcat was found to be 0.52 ± 0.05 s⁻¹ and the kcat/Km was 40000 M⁻¹ s⁻¹. Moreover, the Km in the series “purified protein [5]” worked out at 78 ± 9 µM.

(Values after PMC5331437, “Synthesis of Mono- and Di-Glucosides of Zearalenone and α-/β-Zearalenol by Recombinant Barley Glucosyltransferase HvUGT14077” (Toxins, 2017).)
